From patent US8318206 come the findings set out here.

Data set [1] deals with fluorenyl-9-methoxycarbonyl (Fmoc)-SSFYSGGGC-CONH2.
Data set [2] concerns T1, Fmoc-Gly-Phe-Cys-NH2 (peptide 1).
T1 sequence: GFC

On to Prostate Specific Antigen (PSA), for which the “dispersion of the aggregate (percentage change in intensity against time)” value in data set [1] was “Discrimination of PSA concentration is seen after 5 min”.
For the substance trypsin, in data set [2], the “disassembly of nanoparticle aggregate” value is 8.5 nm gold particles functionalised with Fmoc-Gly-Phe-Cys-NH2 did not disassemble upon introduction of trypsin.
